# From paper PMC5902510
# Target: GST-SpyCatcher fusion protein, immobilised on nanoparticles (Streptococcus pyogenes)
# Assay: dynamic light scattering; GST-SpyCatcher held on 40 nm citrate-capped gold nanoparticles; excess of the second protein, 3 h incubation; increase of Z-average diameter (Δd); 20 °C; 10 mM HEPES pH 7.3, 10 mM NaCl
substance,measurement,value
NEM-GST-SpyTag,increase of particle diameter (Δd),3 nm
